# Biological target: extracellular region of human V158 FcγRIIIa with C-terminal 6×His-tag and GST-tag (human, UniProt P08637 17-208)
# Assay: SPR
# extracellular region of human V158 FcγRIIIa with C-terminal 6×His-tag and GST-tag, sequence (P08637 17-208 F176V): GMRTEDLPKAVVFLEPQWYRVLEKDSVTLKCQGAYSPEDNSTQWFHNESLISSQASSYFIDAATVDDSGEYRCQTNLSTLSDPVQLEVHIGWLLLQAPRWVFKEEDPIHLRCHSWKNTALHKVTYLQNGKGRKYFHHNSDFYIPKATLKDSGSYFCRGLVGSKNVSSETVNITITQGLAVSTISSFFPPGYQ
row,Binder,Fold WT [fold]
1,alemtuzumab E258H (antibody) chain 1: not shown chain 2: not shown,5.5
2,alemtuzumab H268D (antibody) chain 1: not shown chain 2: not shown,5.66
3,alemtuzumab G236S (antibody) chain 1: not shown chain 2: not shown,6.69
4,alemtuzumab E272H (antibody) chain 1: not shown chain 2: not shown,384
5,alemtuzumab E272P (antibody) chain 1: not shown chain 2: not shown,1.41
6,alemtuzumab E283H (antibody) chain 1: not shown chain 2: not shown,2.31
7,alemtuzumab E283L (antibody) chain 1: not shown chain 2: not shown,2.56
8,alemtuzumab E258Y (antibody) chain 1: not shown chain 2: not shown,1.77

# Now from value to binder:
row,Fold WT [fold],Binder
1,12.8,alemtuzumab S304T (antibody) chain 1: not shown chain 2: not shown
2,1.41,alemtuzumab R255Y (antibody) chain 1: not shown chain 2: not shown
3,2.62,alemtuzumab S267E (antibody) chain 1: not shown chain 2: not shown
4,7.07,alemtuzumab K246Y (antibody) chain 1: not shown chain 2: not shown
5,1.51,alemtuzumab V284E (antibody) chain 1: not shown chain 2: not shown
6,22.4,alemtuzumab K246H (antibody) chain 1: not shown chain 2: not shown
7,14.2,alemtuzumab S324G (antibody) chain 1: not shown chain 2: not shown

# Source: patent US20060121032A1 (published 2006)
